This is an account of results in article doi:10.1101/568972v1 (biorxiv, 2019).

Data set [1] concerns the target T1, AceKMs (Mycolicibacterium smegmatis, UniProt A0QQK1).
T1 sequence (A0QQK1 1-376): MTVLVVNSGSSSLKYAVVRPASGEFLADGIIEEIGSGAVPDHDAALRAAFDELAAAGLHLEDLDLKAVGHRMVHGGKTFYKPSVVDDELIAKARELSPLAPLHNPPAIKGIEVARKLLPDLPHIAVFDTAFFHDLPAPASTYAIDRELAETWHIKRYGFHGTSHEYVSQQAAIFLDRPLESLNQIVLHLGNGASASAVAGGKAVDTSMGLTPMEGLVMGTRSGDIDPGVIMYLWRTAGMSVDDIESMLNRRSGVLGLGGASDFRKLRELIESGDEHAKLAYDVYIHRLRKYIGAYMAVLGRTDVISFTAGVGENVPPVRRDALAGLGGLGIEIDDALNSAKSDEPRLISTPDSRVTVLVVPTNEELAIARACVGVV
Briefly: HPLC of ATP/ADP, steady-state kinetics. The class given is biochemical. To be noted: read-out: KM (substrate); ADP in excess; 10 mM MgCl2, pH 9.0, room temperature.

Substrate in data set [2]: NC(=O)C1=CN([C@@H]2O[C@H](COP(=O)(O)OP(=O)(O)OC[C@H]3O[C@@H](n4cnc5c(N)ncnc54)[C@H](O)[C@@H]3O)[C@@H](O)[C@H]2O)C=CC1
Put plainly: purified protein. The settings on record: O2, 50 mM sodium phosphate pH 7, 1 mg/mL BSA, ambient temperature.

Substrate in data set [3]: NC(=O)c1ccc[n+]([C@@H]2O[C@H](COP(=O)(O)OP(=O)(O)OC[C@H]3O[C@@H](n4cnc5c(N)ncnc54)[C@H](O)[C@@H]3O)[C@@H](O)[C@H]2O)c1
Put plainly: purified protein, by the assay type.

Substrate in data set [4]: O=P(O)(O)OC[C@H](O)CO
Briefly: purified protein, by the assay type.

Substrate in data set [5]: O=P(O)(O)OC[C@H](O)CO
Put plainly: purified protein. To be noted: NAD+ co-substrate, 50 mM sodium phosphate pH 9.0, ambient temperature.

Substrate in data set [6]: Nc1ncnc2c1ncn2[C@@H]1O[C@H](COP(=O)(O)OP(=O)(O)O)[C@@H](O)[C@H]1O
Briefly: purified protein, by the assay type.

Substrate in data set [7]: O=C(CO)COP(=O)(O)O
Briefly: purified protein. To be noted: acceptor aldehyde not stated; 'DHAP' printed as table sub-heading.

Substrate in data set [8]: OCC(O)CO
Briefly: purified protein, by the assay type. To be noted: pH 9.0.

Substrate in data set [9]: OCC(O)CO
Put plainly: purified protein. The class given is biochemical, Thermococcus kodakarensis. To be noted: ATP in excess, 10 mM MgCl2, 50 mM NaHCO3 pH 9.0, room temperature.

What is called Km is the concentration of substrate that gives half-maximal velocity. One may read the kcat as the maximal rate divided by the concentration of active sites. The kcat/Km is the turnover number divided by the Michaelis constant.

In the case of `CC(=O)OP(=O)(O)O` [acetyl phosphate], the Km in [1] came to 390 ± 8 µM.

B1: NoxCa (Anaerocolumna aminovalerica) (protein)
chain: MKIVVIGCTHAGTAAVKTILKENPEAEITIFERNDNISFLSCGIALYVGGVVKDPAGLFYSNPEELSKMGANVKIKHNVKSIDTKSKKVIAEDMNTGEEIEVSYDKLVNTTGSWPIIPPIPGIESKNILLCKNYDQANVIIRQTKDAKKIVIVGGGYIGIELVEAFQKSGKQVTLIDGLDRILNKYLDKEFTDILEDDLKKNGINLALDQCVKSFKANENGEVTSVETTKGEYEADMVILCVGFRPNNELLKGKVDMLPNDAIIVDEYMRTSDPDIFAAGDSCAVHYNPNGNYAYIPLATNAVRMGMLIGKNISTPKVKYRGTQSTSGLNLFGYNIGSTGVTVSGAPQIGLNVRSVIVKDNYRPEFMPTNEEIIMQLVYEVGTNRIVGGQVMSKYDITQSANTLSLAIQNKMTIEDLAYVDFFFQPHFDRPWNYLNILGLAALEQEGL
Consider B1, for which, in data set [2], the Km turned out to be 258 ± 21 µM and the kcat is 1,252 ± 182 s-1.

B2: G3PDEc-NOXCa-Est2Aa (Escherichia coli K-12) (protein)
chain: MNQRNASMTVIGAGSYGTALAITLARNGHEVVLWGHDPEHIATLERDRCNAAFLPDVPFPDTLHLESDLATALAASRNILVVVPSHVFGEVLRQIKPLMRPDARLVWATKGLEAETGRLLQDVAREALGDQIPLAVISGPTFAKELAAGLPTAISLASTDQTFADDLQQLLHCGKSFRVYSNPDFIGVQLGGAVKNVIAIGAGMSDGIGFGANARTALITRGLAEMSRLGAALGADPATFMGMAGLGDLVLTCTDNQSRNRRFGMMLGQGMDVQSAQEKIGQVVEGYRNTKEVRELAHRFGVEMPITEEIYQVLYCGKNAREAALTLLGRARKDERSSH
With B2, in [3], the Km is 164 ± 10 µM. In data set [4], the Km amounted to 659 ± 47 µM, the turnover number (kcat) came to 7 ± 0.6 s⁻¹ and the specificity constant (kcat/Km) was 11000 M⁻¹ s⁻¹.

B3: G3PDEc (Escherichia coli K-12) (protein)
chain: B2 chain
Turning to B3, in data set [5], the Michaelis constant (Km) worked out at 59 ± 4 µM and the kcat was found to be 85 ± 11 s⁻¹.

B4: GlpKTk-AceKMs-Est2Aa (Mycolicibacterium smegmatis MC2 155) (protein)
chain: T1 sequence (A0QQK1 1-376)
Consider B4, for which, in data set [6], the Km came out at 398 ± 29 µM.

B5: FruASc (Staphylococcus carnosus subsp. carnosus TM300) (protein)
chain: NQEQFDKIKNGKGFIAALDQSGGSTPKALKDYGVEENEYSNDEEMFNLVHDMRTRIITSPAFNGEKILGAILFEQTMDREVEGKYTGSYLADKGIVPFLKVDKGLAEEADGVQLMKPIPDLDKLLDRANERGIFGTKMRSNILENNKEAIEKVVKQQFEVAKEIIAAGLVPIIEPEVNINAKDKEAIEANLAEAIKAELDNLKKDQYVMLKLTIPTKVNAYSELIEHPQVIRVVALSGGYSRDEANKILKQNDGLIASFSRALVSDLNAQQSDAEFNEKLQEAIDTIFDASVNKA
Take B5: in data set [7], the Km came out at 500 ± 80 µM and the kcat is 16 ± 2 s⁻¹.

B6: GlpKTK-AceKMs-Est2Aa (Thermococcus kodakarensis KOD1) (protein)
chain: MEKFVLSLDEGTTSARAIIFDRESNIHGIGQYEFPQHYPRPGWVEHNPEEIWDAQLRAIKDAIQSARIEPNQIAAIGVTNQRETTLVWDKDGKPLYNAIVWQCRRTAEMVEEIKREYGTMIKEKTGLVPDAYFSASKLKWLLDNVPGLREKAEKGEVMFGTVDTFLIYRLTGEHVTDYSNASRTMLFNIKKLDWDDELLELFDIPESVLPEVRESSEVYGYTKKELLGAEIPVSGDAGDQQAALFGQAAFEAGMVKATYGTGSFILVNTDKMVLYSDNLLTTIAWGLNGRVSYALEGSIFVTGAAVQWLRDGIKIIKHASETEELATKLESNEGVYFVPAFVGLGAPYWDQFARGIIIGITRGTGREHLARATLEAIAYLTRDVVDEMEKLVQIKELRVDGGATANDFLMQFQADILNRKVIRPVVKETTALGAAYLAGLAVDYWADTREIAELWKAERIFEPKMDEKTRERLYKGWKEAVKRAMGWAKVVDSAKSN
For the molecule B6, in [8], the Km was 16 ± 4 µM, the catalytic constant (kcat) stood at 1400 ± 54 s⁻¹ and the kcat/Km came out at 8.6e+07 M⁻¹ s⁻¹.

B7: GlpKTk (Thermococcus kodakarensis KOD1) (protein)
chain: B6 chain
Turning to B7, in data set [9], the Michaelis constant (Km) came to 15 ± 2 µM and the turnover number (kcat) stood at 940 ± 8 s⁻¹.
